Measured values from a protein production outcome set (Wang et al. 2014).

Experiment: label from the status in PepcDB records
For “NENNTVVAETKTSTASETSEPKQVISSKQQLASLYLQAKQSLFKQRALSATMYGLSQKDIGQVISSDMEFYSPENEKQLRAELLSISNTIAGIKLDDADITTKNNQQVMAGLTRYFAGEPNFNIGYIDTWMGLSPFIVNQINGPLIDIPRVMQNDQPITTEKEALDYIVRLGQFDKLAATIIEKQTADAAQNWLPSKVTLQGAIKYLKGFTSGSAEQHPFVNVFREKIEKVDSLTTEQKQSLITQVIAKVSQVVYPAYQSVEKASEQLLSEARSESGIWAQPKGSVYYQDAIKQLGDSELSPTQIHQIGLDEVARISGVMNEILLAQGYTKGTVGERMVALNEEPRFLYEDSIAGREELLSDINGYITEVTAKMAPVFRTTPSYQVEVKSFPVEVQDGAPGGQYTSPAVDGSKPGIYWINLRDMKANPKFGLKTLTYHEANPGHHWQIALNLDQAELPFLRRIAPYNAYTEGWALYSEQVAYELGMYENDPFGDLGRLQAELFRAVRLVVDTGLHDKRWTREQAISYMSEQTGTAESDVVAEIERYMAWPGQALGYKLGMLKILSLREQAKARLGDKFDLAEFHDVVLLNGAVPMAVLSRNVNHWLDNK”, the protein production was “not failed”.
For “NGDQQTMVYIVSAKRKIIADRMLQELDLGVTMLQAVGAYKNNETEVIMCVMRKATLVKVRNLLKEVDPDAFMIVSTANEVFGEGFKNQYETEI”, the protein production was “not failed”.
In the case of “NGMDEEQRQKRRRIEVALIEYRETLEEQGMKNPEEIERKVEINRKRLEVDYGLS”, the protein production is reported as “not failed”.
In the case of “NGQAITLASKHYGSVNSAADLKGMVLGIPFEYSVHALLLRDYLVSNAVDPIADLELRLLRPADMVAQLTVEGIDGFIGPGPFNERAISNGSGRIWLLTKQLWDKHPCCAVAMAKEWKAEHPTAAQGVLNALEEASAILSNPA”, the protein production is reported as “failed”.
With “NILFGISDTQECYNAIKFAVKLAHSLKEVRFTLLHVSMEVFIYSESGMMDYGQTEALEEEKAKALLKQFEDAFKKENIECESVLKSGDLIDVVLDMAKDYDLLLIGASESNLLYRLFISHQNSLVEQSSIPVVIAK” the protein production was “failed”.
For “NKIPTTMAFRTVTDVDNAVNGLYDLMSGSGYYGAAMFAYGDMKGDDMQSSEESGVCNTCYMFNHRPNSLNAGSLWGRPFYILREAWNILNAIAEGKIESGDEKKLNALKGETMAVIALCQFDLTRCFGYPYTKDKGASLGAPLIDHLVGTYENPPRSTVAQAYDFIIETLEEAVTLMSEEKNNGRMNKYAARALLARIYLYHDDNRKAFDLADQLIKDADTSGSYALYPHEKYVAAWSVEAKFGSESFFEIANSVDDTPGRDSWGYLLNWYGYQKGFVTQKYAEQMLADPGDVRGHLLEENKYAGKTVWWLYKLRGTDLKTAPLECNNVVLRLSEVYLIAAEAGCKLGGDAAVQGLGYLNEIVKRGNPDNEVTMADYTLDRVLDERSKELVGEGHRFFDLLRNGKTIVRKGGYHLPSVDEEVDWDFYKCVLPIPEDQFIFSPEMEQNPGYPKN”, the protein production was “not failed”.
With “NLLDDAVKRISEDPPCKCPTKFCVERLSQGRYRVGEKILFIRMLHNKHVMVRVGGGWETFAGYLLKHDPCRMLQISRVDGKTSP” the protein production was “not failed”.
In the case of “NMRQVLKTDRLVLEPQSMARFDQWFAMERQRDEAGHRDLTEDQAWLRLCARQGMWDAYACGFYYLLDPVSGEMRGEAGFQFRRRGFGPGFDNHPEAAWAVASAHQGRGLAAEAMQALLAHHDRSSGRQRVVALIARSNLPSLRLAERLGFR”, the protein production is reported as “failed”.
In the case of “NMTISDIQHAPDYALLSNDEQQLCIQLKILPKPYLVLKEVMFRELLKTGGNLSKSACRELLNIDPIKANRIYDFFQSQNWM”, the protein production is reported as “not failed”.
For “NNDDDGTNKAQEIAGKYEGYSIGNCAMFTDYVMGEKSVATIVPNEDGTINVTYDSGSGEFKLNNIKVTSKTFEGSGQVELSMNDKPAGAKDFTLTGSIDEQQKLTLKVNVPSVMGGLTIEFIQGTLPISYHVSGTYNKEANLSVSVGSTTYPDITDCKVSIKRSSDDTVELTLKGLSNLNSSQTGRAMNLGDFTVTDVKVTSTDNSIFKIEGSINTTDTNNTPITGTLSGTVSNSETNITFTFKPGAMPIDITAMFKGKK”, the protein production was “not failed”.
